Reference: patent US5817490A, “Enzymatic process for the manufacture of ascorbic acid 2-keto-L-gulonic acid and esters of 2-keto-L-gulonic acid” (Eastman Chemical Company, priority 1997, dated 1998)

Assay: enzyme screen for hydrolysis/methanolysis of butyl-KLG (HPLC of products and remaining substrate)
Format: biochemical
Design: KLG formed / MeKLG formed / ASA formed / BuKLG (remaining substrate): unit: ppm
Experimental: Initial enzyme screens were carried out as follows. Enzyme (typically 10 mg), aqueous buffer (typically 860 microliters (ul) or 550 ul), aqueous 0.2M CaCl2 (10 ul), methanol (typically 90 ul or 400 ul), and an aqueous solution of substrate (typically 90 ul of butyl-KLG at a typical concentration of 110,000 ppm) were added to a 2 ml polypropylene centrifuge tube. The resulting solution was vortexed briefly and placed on a shaker bath at 300 rpm at 38° C. (typically for 18 hours or more). After incubation, samples were centrifuged at 14,000 G's (14,000 times gravity) for 20 minutes to remove enzyme, sampled (300 ul), and diluted to one milliliter with distilled water. If not analyzed by HPLC within the day, samples were frozen prior to analysis.
The data were reported in terms of parts per million of KLG, MeKLG, ascorbic acid (ASA) and butyl-KLG. […] Samples labeled as "no enzyme" were controls within a given run. The controls contained substrate but no enzyme and thus represented experimental and HPLC background data.

[1] = Table 3: 38° C., 16 Hours, 38% Methanol-Water, 0.1M MES Buffer
[2] = Table 4: 38° C., 47.5 Hours, 38% Methanol-Water, 0.1M MES Buffer
[3] = Table 7: 38° C., 19 Hours, 8.6% Methanol-Water, 0.1M MES
[4] = Table 8: 38° C., 21 Hours, 8.6% Methanol-Water, 0.2 M MES
[5] = Table 5: 38° C., 19 Hours, 38% Methanol-Water, 0.1 M MES Buffer
[6] = Table 6: 38°, 19 Hours, 8.6% Methanol-Water, 0.1 M MES

B1: Porcine Pancreatic Lipase: Porcine Pancreatic Lipase (protein, UniProt P00591 1-450, looked up)
Pancreatic triacylglycerol …: SEVCFPRLGCFSDDAPWAGIVQRPLKILPWSPKDVDTRFLLYTNQNQNNYQELVADPSTITNSNFRMDRKTRFIIHGFIDKGEEDWLSNICKNLFKVESVNCICVDWKGGSRTGYTQASQNIRIVGAEVAYFVEVLKSSLGYSPSNVHVIGHSLGSHAAGEAGRRTNGTIERITGLDPAEPCFQGTPELVRLDPSDAKFVDVIHTDAAPIIPNLGFGMSQTVGHLDFFPNGGKQMPGCQKNILSQIVDIDGIWEGTRDFVACNHLRSYKYYADSILNPDGFAGFPCDSYNVFTANKCFPCPSEGCPQMGHYADRFPGKTNGVSQVFYLNTGDASNFARWRYKVSVTLSGKKVTGHILVSLFGNEGNSRQYEIYKGTLQPDNTHSDEFDSDVEVGDLQKVKFIWYNNNVINPTLPRVGASKITVERNDGKVYDFCSQETVREEVLLTLNPC
[1]
  ASA formed: 49 ppm
  BuKLG (remaining substrate): 10709 ppm
  KLG formed: 81 ppm
  MeKLG formed: 316 ppm
[2]
  ASA formed: 222 ppm
  BuKLG (remaining substrate): 10899 ppm
  KLG formed: 229 ppm
  MeKLG formed: 613 ppm
[3]
  ASA formed: 314
  BuKLG (remaining substrate): 7888
  KLG formed: 333
  MeKLG formed: 291
[4]
  ASA formed: 78 ppm
  BuKLG (remaining substrate): 6860 ppm
  KLG formed: 303 ppm
  MeKLG formed: 320 ppm

B2: L-7 (Porcine pancreas): Lipase (Porcine pancreas) (protein, UniProt P00591 1-450, looked up)
Pancreatic triacylglycerol …: SEVCFPRLGCFSDDAPWAGIVQRPLKILPWSPKDVDTRFLLYTNQNQNNYQELVADPSTITNSNFRMDRKTRFIIHGFIDKGEEDWLSNICKNLFKVESVNCICVDWKGGSRTGYTQASQNIRIVGAEVAYFVEVLKSSLGYSPSNVHVIGHSLGSHAAGEAGRRTNGTIERITGLDPAEPCFQGTPELVRLDPSDAKFVDVIHTDAAPIIPNLGFGMSQTVGHLDFFPNGGKQMPGCQKNILSQIVDIDGIWEGTRDFVACNHLRSYKYYADSILNPDGFAGFPCDSYNVFTANKCFPCPSEGCPQMGHYADRFPGKTNGVSQVFYLNTGDASNFARWRYKVSVTLSGKKVTGHILVSLFGNEGNSRQYEIYKGTLQPDNTHSDEFDSDVEVGDLQKVKFIWYNNNVINPTLPRVGASKITVERNDGKVYDFCSQETVREEVLLTLNPC
[2]
  ASA formed: 120 ppm
  BuKLG (remaining substrate): 5488 ppm
  KLG formed: 94 ppm
  MeKLG formed: 884 ppm
[3]
  ASA formed: 106
  BuKLG (remaining substrate): 5392
  KLG formed: 1007
  MeKLG formed: 575

B3: Hog Pancreatic Lipase: Hog Pancreatic Lipase, Fluka (protein, UniProt P00591 1-450, looked up)
Pancreatic triacylglycerol …: SEVCFPRLGCFSDDAPWAGIVQRPLKILPWSPKDVDTRFLLYTNQNQNNYQELVADPSTITNSNFRMDRKTRFIIHGFIDKGEEDWLSNICKNLFKVESVNCICVDWKGGSRTGYTQASQNIRIVGAEVAYFVEVLKSSLGYSPSNVHVIGHSLGSHAAGEAGRRTNGTIERITGLDPAEPCFQGTPELVRLDPSDAKFVDVIHTDAAPIIPNLGFGMSQTVGHLDFFPNGGKQMPGCQKNILSQIVDIDGIWEGTRDFVACNHLRSYKYYADSILNPDGFAGFPCDSYNVFTANKCFPCPSEGCPQMGHYADRFPGKTNGVSQVFYLNTGDASNFARWRYKVSVTLSGKKVTGHILVSLFGNEGNSRQYEIYKGTLQPDNTHSDEFDSDVEVGDLQKVKFIWYNNNVINPTLPRVGASKITVERNDGKVYDFCSQETVREEVLLTLNPC
[5]
  ASA formed: 130 ppm
  BuKLG (remaining substrate): 11114 ppm
  KLG formed: 58 ppm
  MeKLG formed: 529 ppm
[6]
  ASA formed: 158 ppm
  BuKLG (remaining substrate): 5284 ppm
  KLG formed: 890 ppm
  MeKLG formed: 791 ppm

B4: Rhizoipus Delmar Lipase: Rhizoipus Delmar Lipase (protein, UniProt P61872 96-392, looked up)
Lipase: DDNLVGGMTLDLPSDAPPISLSSSTNSASDGGKVVAATTAQIQEFTKYAGIAATAYCRSVVPGNKWDCVQCQKWVPDGKIITTFTSLLSDTNGYVLRSDKQKTIYLVFRGTNSFRSAITDIVFNFSDYKPVKGAKVHAGFLSSYEQVVNDYFPVVQEQLTAHPTYKVIVTGHSLGGAQALLAGMDLYQREPRLSPKNLSIFTVGGPRVGNPTFAYYVESTGIPFQRTVHKRDIVPHVPPQSFGFLHPGVESWIKSGTSNVQICTSEIETKDCSNSIVPFTSILDHLSYFDINEGSCL
[1]
  ASA formed: 1 ppm
  BuKLG (remaining substrate): 7392 ppm
  KLG formed: 51 ppm
  MeKLG formed: 99 ppm
[4]
  ASA formed: 0 ppm
  BuKLG (remaining substrate): 7097 ppm
  KLG formed: 178 ppm
  MeKLG formed: 0 ppm

B5: Rhizopus Niveus Lipase: Rhizopus Niveus Lipase (protein, UniProt P61871 96-392, looked up)
Lipase: DDNLVGGMTLDLPSDAPPISLSSSTNSASDGGKVVAATTAQIQEFTKYAGIAATAYCRSVVPGNKWDCVQCQKWVPDGKIITTFTSLLSDTNGYVLRSDKQKTIYLVFRGTNSFRSAITDIVFNFSDYKPVKGAKVHAGFLSSYEQVVNDYFPVVQEQLTAHPTYKVIVTGHSLGGAQALLAGMDLYQREPRLSPKNLSIFTVGGPRVGNPTFAYYVESTGIPFQRTVHKRDIVPHVPPQSFGFLHPGVESWIKSGTSNVQICTSEIETKDCSNSIVPFTSILDHLSYFDINEGSCL
[1]
  ASA formed: 17 ppm
  BuKLG (remaining substrate): 10453 ppm
  KLG formed: 80 ppm
  MeKLG formed: 252 ppm
[4]
  ASA formed: 61 ppm
  BuKLG (remaining substrate): 7102 ppm
  KLG formed: 178 ppm
  MeKLG formed: 181 ppm

B6: Mucor meihei Lipase: Mucor meihei Lipase (protein, UniProt P19515 95-363, looked up)
Lipase: SIDGGIRAATSQEINELTYYTTLSANSYCRTVIPGATWDCIHCDATEDLKIIKTWSTLIYDTNAMVARGDSEKTIYIVFRGSSSIRNWIADLTFVPVSYPPVSGTKVHKGFLDSYGEVQNELVATVLDQFKQYPSYKVAVTGHSLGGATALLCALDLYQREEGLSSSNLFLYTQGQPRVGDPAFANYVVSTGIPYRRTVNERDIVPHLPPAAFGFLHAGEEYWITDNSPETVQVCTSDLETSDCSNSIVPFTSVLDHLSYFGINTGLCT
[2]
  ASA formed: 108 ppm
  BuKLG (remaining substrate): 7041 ppm
  KLG formed: 54 ppm
  MeKLG formed: 189 ppm
[3]
  ASA formed: 156
  BuKLG (remaining substrate): 8620
  KLG formed: 229
  MeKLG formed: 278
[4]
  ASA formed: 54 ppm
  BuKLG (remaining substrate): 7067 ppm
  KLG formed: 243 ppm
  MeKLG formed: 283 ppm

B7: Subtilisin Carlsberg: Subtilisin Carlsberg (a protease) (protein, UniProt P00780 106-379, looked up)
Subtilisin Carlsberg: AQTVPYGIPLIKADKVQAQGFKGANVKVAVLDTGIQASHPDLNVVGGASFVAGEAYNTDGNGHGTHVAGTVAALDNTTGVLGVAPSVSLYAVKVLNSSGSGSYSGIVSGIEWATTNGMDVINMSLGGASGSTAMKQAVDNAYAKGVVVVAAAGNSGSSGNTNTIGYPAKYDSVIAVGAVDSNSNRASFSSVGAELEVMAPGAGVYSTYPTNTYATLNGTSMASPHVAGAAALILSKHPNLSASQVRNRLSSTATYLGSSFYYGKGLINVEAAAQ
Example 4: 38% methanol-water, MES, pH 5 to 5.8
  levels of activity / conversion of butyl-KLG: particularly high levels of activity
[2]
  ASA formed: 0 ppm
  BuKLG (remaining substrate): 0 ppm
  KLG formed: 3072 ppm
  MeKLG formed: 47 ppm
[3]
  ASA formed: 0
  BuKLG (remaining substrate): 4428
  KLG formed: 4463
  MeKLG formed: 93

B8: Humicola lanuginosa Lipase: Humicola lanuginosa Lipase (protein, UniProt O59952 23-291, looked up)
Lipase: EVSQDLFNQFNLFAQYSAAAYCGKNNDAPAGTNITCTGNACPEVEKADATFLYSFEDSGVGDVTGFLALDNTNKLIVLSFRGSRSIENWIGNLNFDLKEINDICSGCRGHDGFTSSWRSVADTLRQKVEDAVREHPDYRVVFTGHSLGGALATVAGADLRGNGYDIDVFSYGAPRVGNRAFAEFLTVQTGGTLYRITHTNDIVPRLPPREFGYSHSSPEYWIKSGTLVPVTRNDIVKIEGIDATGGNNQPNIPDIPAHLWYFGLIGTCL
[1]
  ASA formed: 6 ppm
  BuKLG (remaining substrate): 10191 ppm
  KLG formed: 63 ppm
  MeKLG formed: 90 ppm
[2]
  ASA formed: 42 ppm
  BuKLG (remaining substrate): 8017 ppm
  KLG formed: 129 ppm
  MeKLG formed: 241 ppm
[4]
  ASA formed: 10 ppm
  BuKLG (remaining substrate): 7215 ppm
  KLG formed: 176 ppm
  MeKLG formed: 129 ppm
